Assays:
[1] = target: T1, human MASP-2 D4-6 recombinant protein (human, UniProt O00187 298-686); experiment: ELISA, antigen coated, chimeric IgG titrated, anti-human Fc-HRP
T1 construct: his6 tag fused at the N-terminus, made in HEK293E; also called enzymatic activity domains CCP1-CCP2-SP of human MASP-2

[2] = target: T2, mouse MASP-2 D4-6 recombinant protein (mouse, UniProt Q91WP0 298-685); experiment: as above
T2 construct: Made 'similarly' to the human protein (N-terminal his6 tag)

[3] = target: T3, rat MASP-2 D4-6 recombinant protein (rat, UniProt Q9JJS8 298-685); experiment: as above
T3 construct: Made 'similarly' to the human protein (N-terminal his6 tag)
T3 sequence (Q9JJS8 other isoform, or with tags, fused parts or gaps limits assumed): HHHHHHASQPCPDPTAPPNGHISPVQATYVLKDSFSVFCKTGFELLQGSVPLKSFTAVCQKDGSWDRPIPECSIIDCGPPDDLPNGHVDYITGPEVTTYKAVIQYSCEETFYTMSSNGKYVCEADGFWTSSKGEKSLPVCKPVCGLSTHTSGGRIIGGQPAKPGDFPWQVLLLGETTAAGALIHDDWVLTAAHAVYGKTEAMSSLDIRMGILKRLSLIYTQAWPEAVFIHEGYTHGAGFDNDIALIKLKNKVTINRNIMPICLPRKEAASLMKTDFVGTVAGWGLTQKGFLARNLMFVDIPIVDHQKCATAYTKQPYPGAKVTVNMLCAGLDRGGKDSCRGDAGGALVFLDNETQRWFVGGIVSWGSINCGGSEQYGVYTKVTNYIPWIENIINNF

[4] = target: T4, Cynomolgus monkey MASP-2 D4-6 recombinant protein (Cynomolgus monkey, UniProt O00187 298-686 (human entry), limits assumed); experiment: as above
T4 construct: Made 'similarly' to the human protein (N-terminal his6 tag)
T4 sequence (O00187 other isoform, or with tags, fused parts or gaps limits assumed): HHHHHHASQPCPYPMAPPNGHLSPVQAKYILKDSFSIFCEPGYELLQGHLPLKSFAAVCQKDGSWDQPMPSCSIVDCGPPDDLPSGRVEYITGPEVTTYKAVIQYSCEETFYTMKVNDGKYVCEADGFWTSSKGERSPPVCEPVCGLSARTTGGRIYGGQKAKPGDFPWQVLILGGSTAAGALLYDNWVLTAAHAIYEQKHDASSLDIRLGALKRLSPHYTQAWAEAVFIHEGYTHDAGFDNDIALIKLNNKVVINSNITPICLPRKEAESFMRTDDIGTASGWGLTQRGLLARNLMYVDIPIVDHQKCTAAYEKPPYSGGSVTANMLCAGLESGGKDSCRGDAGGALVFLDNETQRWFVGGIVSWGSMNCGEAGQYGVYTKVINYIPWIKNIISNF

[5] = target: T1, human MASP-2 D4-6 recombinant protein; experiment: SPR Biacore T200, antibody on Protein A chip, antigen as analyte, 1:1 fit
Method: (§1) Surface plasmon resonance technology (SPR/Biacore T200) was used to capture 0.1 μg/ml of the antibody on the surface of the Protein A chip, with a capture time of 40 seconds and a flow rate of 10 μl/min. The chip was washed with buffer until the baseline leveled off, then gradient-diluted antigen was flowed through the chip at the flow rate of 30 μl/min, with a binding time of 120 sec and a dissociation time of 600 sec. The equilibrium dissociation constant (KD) was obtained by fitting in Langmuir 1:1 kinetics mode.

[6] = target: T2, mouse MASP-2 D4-6 recombinant protein; experiment: as above
Method: as §1

[7] = target: T3, rat MASP-2 D4-6 recombinant protein; experiment: as above
Method: as §1

[8] = target: T4, Cynomolgus monkey MASP-2 D4-6 …; experiment: as above
Method: as §1

T2 sequence (Q91WP0 other isoform, or with tags, fused parts or gaps limits assumed): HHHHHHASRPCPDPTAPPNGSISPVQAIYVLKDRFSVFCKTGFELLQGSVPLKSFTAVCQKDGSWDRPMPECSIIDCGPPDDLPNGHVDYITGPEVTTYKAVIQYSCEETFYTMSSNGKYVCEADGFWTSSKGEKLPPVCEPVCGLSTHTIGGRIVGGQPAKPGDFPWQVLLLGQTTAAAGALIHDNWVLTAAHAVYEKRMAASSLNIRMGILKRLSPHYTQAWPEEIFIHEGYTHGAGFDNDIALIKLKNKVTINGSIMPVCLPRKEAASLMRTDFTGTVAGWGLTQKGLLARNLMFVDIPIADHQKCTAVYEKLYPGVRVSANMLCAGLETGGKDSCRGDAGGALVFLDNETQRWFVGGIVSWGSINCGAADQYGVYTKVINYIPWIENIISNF
T1 sequence (O00187 other isoform, or with tags, fused parts or gaps limits assumed): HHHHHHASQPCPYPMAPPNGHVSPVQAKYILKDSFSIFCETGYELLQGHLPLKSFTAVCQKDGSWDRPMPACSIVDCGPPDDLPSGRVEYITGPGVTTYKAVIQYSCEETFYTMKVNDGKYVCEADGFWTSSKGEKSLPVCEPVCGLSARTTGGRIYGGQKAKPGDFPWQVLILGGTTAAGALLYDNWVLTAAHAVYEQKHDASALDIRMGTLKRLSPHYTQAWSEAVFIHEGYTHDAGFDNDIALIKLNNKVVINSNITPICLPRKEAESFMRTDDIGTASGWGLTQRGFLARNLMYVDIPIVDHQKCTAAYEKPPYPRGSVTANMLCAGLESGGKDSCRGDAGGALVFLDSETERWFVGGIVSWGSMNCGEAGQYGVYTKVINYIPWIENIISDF

B1: chimeric antibody 3B9 (antibody, V domains shown)
VH: DVQLQESGPGLVRPSQSLSLTCTVTGYSITSDYAWNWIRQFPGNKLEWMGYISYSGRTSYNPSLKSRLSITRDTSKNQFFLQLNSVSSADTATYYCAIISTAVDFDYWGQGTTLTVSS
VL: QTVLTQSPAIMSASLGERVTMTCTASSSVSSSYLLWYQQKPGSSPKLWIYSTSKLASGVPVRFSGSGSGTSYSLTISSMEADDAATYYCLQYNRSPLTFGAGTKLELK
[1]
  EC50: 0.025 nM
[2]
  EC50: 4.39 nM
[3]
  EC50: 1.62 nM
[4]
  EC50: 0.038 nM
[5]
  Kd: 0.067 nM
[6]
  Kd: 476 nM
[7]
  Kd: 1040 nM
[8]
  Kd: 0.051 nM

B2: chimeric antibody 25L15 (antibody, V domains shown)
VH: KVKLVESGGDLVKPGGSLKISCAASGFTFSNYAMSWIRQTPDKRLEWVATVSSGGPYTYYPDSVKGRFTISRDNAENTLYLQMSSLRSDDTAIYYCARQIYSDYDVTYWGQGTLVTVSA
VL: QIVLSQSPAILSASPGETVTMTCRVSSSVSYMYWLQQKPGSSPKPWIYATSNLASGVPARFSGSGSGTSYSLTITRVEAEDAATYYCQQWSFRPWTFGGGTKLEIK
[1]
  EC50: 0.012 nM
[2]
  EC50: 0.023 nM
[3]
  EC50: 0.021 nM
[4]
  EC50: 0.008 nM
[5]
  Kd: 0.12 nM
[6]
  Kd: 499 nM
[7]
  Kd: 167 nM
[8]
  Kd: 0.92 nM
